We go through one molecule from patent US20190127459 (published 2019).

The assay deals with T1, mouse IL-22R (mouse, UniProt Q80XZ4).
T1 chain: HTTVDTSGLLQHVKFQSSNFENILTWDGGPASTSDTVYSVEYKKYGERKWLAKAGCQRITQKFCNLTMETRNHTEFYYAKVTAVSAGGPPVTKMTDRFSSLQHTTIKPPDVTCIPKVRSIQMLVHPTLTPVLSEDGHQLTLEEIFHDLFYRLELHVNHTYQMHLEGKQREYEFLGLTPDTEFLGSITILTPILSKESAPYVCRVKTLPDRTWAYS

B1: 230C9 (antibody, V domains shown)
VH: QVQLVESGGGLVQPGGSLRLSCAASGFTFSSYDMNWVRQAPGKGLEWVSSIYNDASNTAYSDSVKGRFTISRDNSKNTLYLQMNSLRAEDTAVYYCAKVGFSGTYYSESWGQGTLVTVSS
VL: SYELTQPSSVSVALGQTARITCQGGYYAHWYQQKPGQAPVLVIYGQNNRPSGIPERFSGSGAGNTATLTISRAQAEDEADYYCQSGSSSSNAVFGGGTKLTVL
As to B1, the binding result was “no binding”.
